Sequences and labels used below:
B1: Macrophage colony-stimulating factor 1 (Homo sapiens), P09603 (parent)
chain: MTAPGAAGRCPPTTWLGSLLLLVCLLASRSITEEVSEYCSHMIGSGHLQSLQRLIDSQMETSCQITFEFVDQEQLKDPVCYLKKAFLLVQDIMEDTMRFRDNTPNAIAIVQLQELSLRLKSCFTKDYEEHDKACVRTFYETPLQLLEKVKNVFNETKNLLDKDWNIFSKNCNNSFAECSSQDVVTKPDCNCLYPKAIPSSDPASVSPHQPLAPSMAPVAGLTWEDSEGTEGSSLLPGEQPLHTVDPGSAKQRPPRSTCQSFEPPETPVVKDSTIGGSPQPRPSVGAFNPGMEDILDSAMGTNWVPEEASGEASEIPVPQGTELSPSRPGGGSMQTEPARPSNFLSASSPLPASAKGQQPADVTGTALPRVGPVRPTGQDWNHTPQKTDHPSALLRDPPEPGSPRISSLRPQGLSNPSTLSAQPQLSRSHSSGSVLPLGELEGRRSTRDRRSPAEPEGGPASEGAARPLPRFNSVPLTDTGHERQSEGSFSPQLQESVFHLLVPSVILVLLAVGGLLFYRWRRRSHQEPQRADSPLEQPEGSPLTQDDRQVELPV
B2: Secreted protein BARF1 (Epstein-Barr virus (strain B95-8) (HHV-4)), P03228 (parent)
chain: MARFIAQLLLLASCVAAGQAVTAFLGERVTLTSYWRRVSLGPEIEVSWFKLGPGEEQVLIGRMHHDVIFIEWPFRGFFDIHRSANTFFLVVTAANISHDGNYLCRMKLGETEVTKQEHLSVVKPLTLSVHSERSQFPDFSVLTVTCTVNAFPHPHVQWLMPEGVEPAPTAANGGVMKEKDGSLSVAVDLSLPKPWHLPVTCVGKNDKEEAHGVYVSGYLSQ
partner: B1 chain

The variants in one assay derive from B1. Particulars: with csf1r_human CSF1R.
With MTAPGAAGRCPPTTWLGSLLLLVCLLASRSITEEVSEYCSAMIGSGALQSLQRLIDSQMETSCQITFEFVDQEQLKDPVCYLKKAFLLVAAIMEDTMRFRDNTPNAIAIVQLQELSLRLKSCFTKDYEEHDKACVRTFYETPLQLLEKVKNVFNETKNLLDKDWNIFSKNCNNSFAECSSQDVVTKPDCNCLYPKAIPSSDPASVSPHQPLAPSMAPVAGLTWEDSEGTEGSSLLPGEQPLHTVDPGSAKQRPPRSTCQSFEPPETPVVKDSTIGGSPQPRPSVGAFNPGMEDILDSAMGTNWVPEEASGEASEIPVPQGTELSPSRPGGGSMQTEPARPSNFLSASSPLPASAKGQQPADVTGTALPRVGPVRPTGQDWNHTPQKTDHPSALLRDPPEPGSPRISSLRPQGLSNPSTLSAQPQLSRSHSSGSVLPLGELEGRRSTRDRRSPAEPEGGPASEGAARPLPRFNSVPLTDTGHERQSEGSFSPQLQESVFHLLVPSVILVLLAVGGLLFYRWRRRSHQEPQRADSPLEQPEGSPLTQDDRQVELPV [H41A;H47A;Q90A;D91A], the “effect of a mutation on the interaction” value is given as “decreasing interaction strength”.

In a further assay the parent is B2. To be noted: with csf1_human CSF1, P09603.
Consider MARFIAQLLLLASCVAAGQAVTAFLGERVTLTSAWAAAALGPEIEVSWFKLGPGEEQVLIGRMHHDVIFIEWPFRGFFDIHAAAAAFFLVVTAANISHDGNYLCRMKLGETEVTKQEHLSVVKPLTLSVHSERSQFPDFSVLTVTCTVNAFPHPHVQWLMPEGVEPAPTAANGGVMKEKDGSLSVAVDLSLPKPWHLPVTCVGKNDKEEAHGVYVSGYLSQ [Y34A;R36A;R37A;V38A;S39A;R82A;S83A;N85A;T86A], for which the “effect of a mutation on the interaction” value is “decreasing interaction strength”.

Consider MARFIAQLLLLASCVAAGQAVTAFLGERVTLTSAWAAAALGPEIEVSWFKLGPGEEQVLIGRMHHDVIFIEWPFRGFFDIHRSANTFFLVVTAANISHDGNYLCRMKLGETEVTKQEHLSVVKPLTLSVHSERSQFPDFSVLTVTCTVNAFPHPHVQWLMPEGVEPAPTAANGGVMKEKDGSLSVAVDLSLPKPWHLPVTCVGKNDKEEAHGVYVSGYLSQ [Y34A;R36A;R37A;V38A;S39A], for which the “effect of a mutation on the interaction” value is reported as “decreasing interaction strength”.

For the origin of these results see IntAct's records for PubMed 22902366.
